Measurements published in US6994856 (Genentech, dated 2006).
gD epitope tag = herpes gD epitope tag left after the gD signal sequence; Fc (human IgG1) = Fc portion of human IgG1

T1: ErbB4.Fc (UniProt Q15303 26-651, limits assumed)
T1 construct: also called soluble form of ErbB4 receptor; immobilized soluble ErbB4 receptor; not shown: Fc part, not described; the protein was captured on the plate by goat anti-human antibody
T1 sequence (looked up): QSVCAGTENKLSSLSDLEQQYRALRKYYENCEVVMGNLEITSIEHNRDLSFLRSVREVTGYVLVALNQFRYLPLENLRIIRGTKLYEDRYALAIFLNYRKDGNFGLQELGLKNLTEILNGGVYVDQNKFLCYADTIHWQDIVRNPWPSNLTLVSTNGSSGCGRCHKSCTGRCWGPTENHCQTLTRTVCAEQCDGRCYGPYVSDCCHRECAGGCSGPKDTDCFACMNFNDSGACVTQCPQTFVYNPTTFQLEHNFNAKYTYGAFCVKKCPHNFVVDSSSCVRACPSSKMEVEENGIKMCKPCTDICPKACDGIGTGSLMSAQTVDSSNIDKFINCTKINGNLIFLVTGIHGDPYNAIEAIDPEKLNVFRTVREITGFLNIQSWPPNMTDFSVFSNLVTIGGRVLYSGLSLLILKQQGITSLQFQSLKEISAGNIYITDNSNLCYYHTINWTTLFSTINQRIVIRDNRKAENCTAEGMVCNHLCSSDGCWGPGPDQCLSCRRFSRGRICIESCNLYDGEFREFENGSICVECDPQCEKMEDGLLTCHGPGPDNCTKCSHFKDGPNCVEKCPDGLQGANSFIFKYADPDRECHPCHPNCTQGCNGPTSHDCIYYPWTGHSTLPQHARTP

B1: NRG3^EGF.Fc (Fc fusion)
chain: {gD epitope tag}-ERSEHFKPCRDKDLAYCLNDGECFVIETLTGSHKHCRCKEGYQGVRCDQFLPKTDSILSDP-{Fc (human IgG1)}
modifications: not fully specified
notes: Secreted from CHO cells, purified on protein A; MW 90 kDa; also called NRG3-EGF-Fc fusion protein; not shown: Fc portion of human IgG1

What was measured:
[1] = molecular target: T1, ErbB4.Fc; assay: displacement of 125I-NRG3^EGF.Fc from immobilized ErbB4.Fc by NRG1^EGF
[2] = molecular target: T2, human ErbB2 receptor on cells (human, UniProt P04626 23-1255); assay: FACS on K562^erbB2 cells
T2 construct: whole, on cells; also called HER2; K562^erbB2 cells
Protocol: (§1) In FIGS. 6A–6D, parental K562 cells (FIG. 6A) or K562 cells expressing either ErbB2 receptor (K562^erbB2 cells; FIG. 6B), ErbB3 receptor (K562^erbB3 cells; FIG. 6C) or ErbB4 receptor (K562^erbB4 cells; FIG. 6D) were examined for the expression of corresponding receptors. Cells were incubated with anti-ErbB2 receptor, anti-ErbB3 receptor or anti-ErbB4 receptor antibodies as indicated before PE-conjugated secondary antibody was added. "LOG PE" represents relative fluorescent intensity and "Counts" represents cell numbers. In FIGS. 6E–6H, NRG3^EGF.Fc is shown by FACS analysis to bind to ErbB4 receptor expressing cells. Parental K562 cells (FIG. 6E), K562^erbB2 cells (FIG. 6F), K562^erbB3 cells (FIG. 6G) and K562^erbB4 cells (FIG. 6H) were incubated with or without NRG3^EGF.Fc (containing gD tag) for 1 hour, followed by anti-gD-tag primary antibody and PE-conjugated secondary antibody.
(§2) C. FACS Analysis. For each binding reaction, 5×10^5 stably transfected K562 cells were suspended in PBS/2% BSA at 4° C. for 30 min followed by incubation with 5 µg of isolated, purified NRG3^EGF.Fc (MW 90 kDa) in a volume of 0.25 ml on ice for 60 min. 1 µg of primary antibody (anti-gD or anti-ErbB receptor) and secondary PE-conjugated (CALTAG, Calif., goat anti-mouse, 1:100 dilution) antibodies were added sequentially with 30–60 min incubation time and extensive washes before each addition. […]

[3] = molecular target: T3, human ErbB3 receptor on cells (human, UniProt P21860 20-1342); assay: FACS on K562^erbB3 cells
T3 construct: whole, on cells; also called HER3; K562^erbB3 cells
Protocol: as §1, §2

[4] = molecular target: T1, ErbB4.Fc; assay: displacement of 125I-NRG3^EGF.Fc from immobilized ErbB4.Fc by unlabeled NRG3^EGF.Fc
Protocol: The displacement binding assays were performed in Maxisorp C 96-wells (Nunc, Naperville, Ill.). Goat anti-human antibody (Boehringer Mannheim, Germany) was coated on the plate at a concentration of 0.2 µg/well in 100 µl of 50 mM sodium carbonate buffer (pH 9.6) at 4° C., overnight. The plate was blocked by 1% BSA in TBST buffer (25 mM Tris, pH 7.5, 150 mM NaCl, 0.02% Tween 20) for 30 min at room temperature (RT). A soluble form of ErbB4 receptor was added at 15 ng/well in 1% BSA/TBST and incubated for 1.5 hr at RT. To prevent radiolabeled protein from interacting with residual goat anti-human antibodies, 1 µM of a humanized monoclonal antibody (rhuMAB HER2; Carter, P. et al. (1992) *Proc. Natl. Acad. Sci. USA* 89:4285–9) was added to the plate for 20 min and was included in the subsequent binding reaction.
The unbound material was washed by TBST extensively, and the bound radioactivity was counted on a Beckman IsoData gamma-counter (Smith-Kline Beckman, Pa.). Data was analyzed using a nonlinear regression computer program.

T3 sequence (P21860 20-1342): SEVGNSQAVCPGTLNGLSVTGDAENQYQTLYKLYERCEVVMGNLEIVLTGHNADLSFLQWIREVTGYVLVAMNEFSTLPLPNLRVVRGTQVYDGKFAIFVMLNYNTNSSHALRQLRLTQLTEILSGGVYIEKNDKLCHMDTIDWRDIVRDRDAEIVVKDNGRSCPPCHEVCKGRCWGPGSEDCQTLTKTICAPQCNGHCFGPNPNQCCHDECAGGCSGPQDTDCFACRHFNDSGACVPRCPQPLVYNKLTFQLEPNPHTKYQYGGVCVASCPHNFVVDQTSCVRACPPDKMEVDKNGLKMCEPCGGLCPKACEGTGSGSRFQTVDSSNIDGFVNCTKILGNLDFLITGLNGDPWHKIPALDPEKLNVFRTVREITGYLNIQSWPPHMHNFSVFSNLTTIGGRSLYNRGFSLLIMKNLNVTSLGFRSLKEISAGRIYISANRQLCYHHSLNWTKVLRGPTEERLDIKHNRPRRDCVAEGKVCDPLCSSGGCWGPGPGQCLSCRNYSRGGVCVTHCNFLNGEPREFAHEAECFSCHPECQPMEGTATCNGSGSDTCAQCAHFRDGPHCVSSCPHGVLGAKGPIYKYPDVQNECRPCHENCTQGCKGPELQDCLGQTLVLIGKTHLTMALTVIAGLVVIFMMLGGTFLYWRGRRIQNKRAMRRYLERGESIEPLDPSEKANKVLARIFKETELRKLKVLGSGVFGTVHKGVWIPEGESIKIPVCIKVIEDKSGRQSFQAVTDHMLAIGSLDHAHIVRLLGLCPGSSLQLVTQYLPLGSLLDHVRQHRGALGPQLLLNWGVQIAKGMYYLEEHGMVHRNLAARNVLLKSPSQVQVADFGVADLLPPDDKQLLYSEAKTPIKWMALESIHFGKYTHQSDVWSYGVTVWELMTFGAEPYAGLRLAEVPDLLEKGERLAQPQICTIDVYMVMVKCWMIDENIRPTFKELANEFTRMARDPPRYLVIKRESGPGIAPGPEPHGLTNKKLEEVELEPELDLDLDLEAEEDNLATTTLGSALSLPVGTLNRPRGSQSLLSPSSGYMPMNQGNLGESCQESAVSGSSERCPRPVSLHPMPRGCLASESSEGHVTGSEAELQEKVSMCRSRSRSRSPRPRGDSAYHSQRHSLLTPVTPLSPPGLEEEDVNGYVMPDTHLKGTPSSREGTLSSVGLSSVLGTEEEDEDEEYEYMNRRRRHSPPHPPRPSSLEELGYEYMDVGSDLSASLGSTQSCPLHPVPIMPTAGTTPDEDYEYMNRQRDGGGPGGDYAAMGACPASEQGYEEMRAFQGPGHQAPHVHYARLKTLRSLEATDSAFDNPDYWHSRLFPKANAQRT

Molecule	Ki [1] [nM]	binding result [2]	binding result [3]	Ki [4] [nM]
NRG1^EGF (from UniProt Q02297 177-244) (ligand)	1	–	–	–
B1	–	no binding (tested: 5 µg in a volume of 0.25 ml)	no binding (tested: 5 µg in a volume of 0.25 ml)	9
